Results published in article PMC5974088.

What was measured:
Assay in all cases: ITC; 200-400 μM 53BP1 Tudor domain (wt or mutant) injected into 200 μl of 22-44 μM TIRR or Nudt16 (wt or mutant); 25 °C; 20 mM Tris-HCl pH 7.5, 150 mM NaCl; single-site binding model
[1] = target: Nudt16 ^H105 (H. sapiens) (UniProt Q96DE0)
[2] = target: TIRR H106A (not stated (human or mouse cDNA cloned)) (UniProt Q8VHN8)
[3] = target: TIRR P105A (not stated (human or mouse cDNA cloned)) (UniProt Q8VHN8)
[4] = target: TIRR K10E (not stated (human or mouse cDNA cloned)) (UniProt Q8VHN8)
[5] = target: TIRR H106Q (not stated (human or mouse cDNA cloned)) (UniProt Q8VHN8)
[6] = target: TIRR H106Δ (not stated (human or mouse cDNA cloned)) (UniProt Q8VHN8)
[7] = target: TIRR H106K (not stated (human or mouse cDNA cloned)) (UniProt Q8VHN8)
[8] = target: Nudt16 ^H105 with R5, L7, V100 substituted by TIRR residues K10, I12, L101 (H. sapiens) (UniProt Q96DE0)
[9] = target: TIRR H106W (not stated (human or mouse cDNA cloned)) (UniProt Q8VHN8)
[10] = target: TIRR L20A (not stated (human or mouse cDNA cloned)) (UniProt Q8VHN8)
[11] = target: TIRR I12G (not stated (human or mouse cDNA cloned)) (UniProt Q8VHN8)
[12] = target: TIRR H106Y (not stated (human or mouse cDNA cloned)) (UniProt Q8VHN8)
[13] = target: Nudt16 ^W105 (H. sapiens) (UniProt Q96DE0)
[14] = target: TIRR H106R (not stated (human or mouse cDNA cloned)) (UniProt Q8VHN8)
[15] = target: TIRR I12A (not stated (human or mouse cDNA cloned)) (UniProt Q8VHN8)

Chain of 53BP1 tandem Tudor domain (1484-1603) (Q12888 other isoform, or with tags, fused parts or gaps): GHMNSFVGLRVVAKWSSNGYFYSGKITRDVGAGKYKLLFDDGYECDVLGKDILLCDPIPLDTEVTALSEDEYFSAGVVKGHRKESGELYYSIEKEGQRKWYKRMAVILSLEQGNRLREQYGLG

- Kd [1]: 7.1 µM
- Kd [2]: 3.9 µM
- Kd [3]: 4.3 µM
- Kd [4]: 20.4 µM
- Kd [5]: 5.1 µM
- Kd [6]: 17.8 µM
- Kd [7]: 6.8 µM
- Kd [8]: 1 µM
- Kd [9]: 0.5 µM
- Kd [10]: 25.5 µM
- Kd [11]: 38.3 µM
- Kd [12]: 1.4 µM
- Kd [13]: 3.6 µM
- Kd [14]: 1.9 µM
- Kd [15]: 4.9 µM
Substance: 53BP1 tandem Tudor domain (1484-1603) (from UniProt Q12888 1484-1603) (domain or fragment)
